Laboratory results published in patent US9669247B2 (priority 2011, dated 2017).

What was measured:
[1] = pH 7
[2] = pH 7; remark: listed apart in the source

B1: TsmE (protein)
chain: METDKKTGTSRRSFVKAAGTGAIGIATLPLSTATAFAETDNVELAQSKRKVVLAEQGSFYIGGRTVTGPGKFDPSKPVIPYSNEGATFYINQMYVNFQAPVRPRGLPLVFWHGGGLTGHIWESTPDGRPGFQTLFVQDRHTVYTIDQPGRGRGNIPTFNGPFGQLEEESIVNTVTGNSSKEGAWVRDRLGPAPGQFFENSQFPRGYEDNYFKEMGFSPSISSDEIVDAVVKLVTHIGPCVLVTHSASGVLGMRVATHAKNVRGIVAYEPATSIFPKGKVPEIPPLADKKSQIFPPFEIQESYFKKLAKIPIQFVFGDNIPKNPKSAYWFLDWWRVTRYAHSLSLEAINKLGGQASLLDLPTAGLRGNTHFPFTDRNNVQVASLLSDFLGKHGLDQNES
modifications: Methylophilus sp. S113; Thiefensulfuron Hydrolase TSME
specific enzyme activity of TsmE to haloxyfop-R-methyl [1]: 55 U/mg protein | specific enzyme activity of TsmE to thifensulfuron [2]: 67 U/mg protein
